This data set in a line: label from the status in PepcDB records.
In the case of “MVIGVPKEIKTLENRVALTPGGVESLVRRGHTVLVERGAGEGSGLSDAEYARAGAELVGREEAWGAEMVVKVKEPLPEEYGFLREGLILFTYLHLAADRGLTEAMLRSGVTGIAYETVQLPDGTLPLLVPMSEVAGRMAPQVGAQFLEKPKGGRGVLLGGVPGVAPASVVILGGGTVGTNAAKIALGMGAQVTILDVNHKRLQYLDDVFGGRVITLTATEANIKKSVQHADLLIGAVLVPGAKAPKLVTRDMLSLMKEGAVIVDVAVDQGGCVETIRPTTHAEPTYVVDGVVHYGVANMPGAVPRTSTFALTNQTLPYVLKLAEKGLDALLEDAALLKGLNTHKGRLTHPGVAEAFGLPYTPPEEALRG”, the protein production result was “not failed”. For the sequence “MRGSVAALLLAAGRSIRMGRCKQLLPLGNTTVLGRCLDTLRRGGVGEIAVVVSADGEQVARAAAGHGVRVVVNPDREGDMASSVRAGRDAFGSAVGGVIVSLCDQPLVAAGTVARLRDRHATEPGRIIIPTHGGRRGHPLLFPLPVLAELEDGLTLRDLVVCDPARVCCVAVADPGILIDMDTPEDYRHVCRLMAPQEGLSLRLEHHHHHH”, the protein production entry is “failed”. Under “MRKVRIANEQTEESDIIKIVHLSDIHFSEAYYMPEIADSMLQIINESSPDIVIITGDLTENGFAAEYNGAKNFIDKIECKNKVIVPGNHDSKNAGYLFFEDIFKARSSSGYFGDVTVIGLDSSQPELDDGHIGRENYGWIESTFSTGSFKVFALHHHLIPIPKTGRGNNVLVDAGDVLELLDRSGVNLVLCGHWHIPWVWRLNDMFIISAGTVCSSKIRGKTSQCYNLIELETPESECTRWHLRITRVFSSGIKELVVDNIV” stands “failed”. Under “MARILKKNKNELLDILEDYMTDCKYRDLRRTTIRAYEQSLRLLFKFLEDDYKVIYVEDVKEEHIRNYIDFTKERGKYSYVANENNINSNVPQNRGDFGKKVSLCTLDNYLGNIKMFFTWCKDNKLISKDPSFKIKRIKYSRKAKAEITIDEFNKLLKSLDLTLFSEYRDYIVIQLLMDTGMRVGECLELREEDIDIRNKTIFISGEIAKGRRDRYVFFSNTMQRMLQKWLNYKDRYVESNYIFVTNRGGKYQVHSFEKHMRNYLKKAKIDKQITPHTLRNNFAKRFLMSGGDIYTLSRLLGHSDIRTTQSAYLDLTTSDIRKNYLKFSPLENMKKKNW” stands “failed”; under “MYRAAIPNLFTLGNLYSGFLSIGYASLGYYKSAAILVLIGMMLDSLDGRVARLLRVDSQMGKELDSLADVVTFGAAPAVLMYYTSFSNYGIIGLYIAGLFPLFGAYRLARFNVTPSSTSMKYFTGVPITAAGGLVAFLTLFSHTIPKIVLITVFVTFAFLMVSRIRIPSLKDVPIPRYSIIITLFLVGIIITMYQTGFGNFSVFLFIAIPLYILYMLSQFIRQRPSKKANKEK”, “failed”; under “MFKNNSYKVGVLALALSMALTGCVSDGDDGEQGLKGEQGAPGVVGVDGNDGKSLPRDLNVEVVGRFATGIYGKSAAEIVQFHKSSNAAFAINGASNQIEVISLTNLSTTAVGNPVADESLTSNAFIFPLNVSVTNSAGVEKDMSLGAVNSIAIKKDLLAIAVEGEIKQAHGAILFYSLNELGEGTFIKAVEVGALPDMVTFTPDGSKALVANEGEPNTDYTNDPEGSISVISVVDLMPANVAKTINLSTDIVFSDDNLVPEDFDTDAKRLAILSKAGVKFAGPAGNTVAKDLEPEYITTSSNSKMAYVSLQENNAIGIINLEELTIEVKALGYKDWGKYQLDFSNKDEVPEFKSIQGLYGMYQPDTLASYTWNDTTFIVSANEGDARDYDGFSEEVRVKDIIDTDELNQTLSSELQSQYDVSGGKNYLGRLKVTTALGDEDQNGEFEKLFAYGARSFSIWDKNANLVFDSGDDFGKISAAIMGDNFNAAHTKNKGDNRSDDKGGEPEAIDVGEIAGRTYAFIAQERAGDLFVYDITNPFKTAFVTHYNNRDFTVDYEMDDDLADPCDSSEGMDCTKVNSAGDLGPESIKFVSAIDSPTSKPLLIIGNEVSGTVTVYQITEQ”, “failed”. With “QGYQVTKLYVMDRDGTNARLLTEGFDRDVQNPTFTADGEHIVFRYVDEGSTKIGRVALDGGRRVVAEHVGGTSIGRPYTSGSFSLASNGRVAFTHATPQRPADVAVAQAGREAQVLTALNDDLFGQVDLGSVEQITYESSHDGRTIEGWIVTPPGFDASQEYPLVLEIHGGPFASYGPYFSAEVQLYAAAGYVVLYTNPRGSTSYGQDFGNAIHHDYPGHDYDDLMSGVDAVLERGYVDADRLYVTGGSGGGVLTSWIVGHTDRFRAAVAAKPVINWYSWALTADMYPYGVKYWFPGLPWNHEEHYMDRSPLSYVDNVTTPTMLLTGANDYRTPMSESEQFYQALKLREVETALVRVPGASHSIAARPSHLAAKAAHVLEWFRRHGGPTPEQ” the entry was “failed”.

As to “IQNNEATLRCIVENLPIFFGMRTINFSNWYYINPSFESLTGYTPDEMYEDPLLWQKIHREEYAENLEQARPNLGEWTIFSMEKKDGTQIWAQTVEFLVDDLSDTARVVVFGQDITDIKRAEIETLRSLVKERELNEAKSQFVDIVSHEFRTPLTSIIGF”, the protein production result was “failed”. Under “MDEIDLRILKILQYNAKYSLDEIAREIRIPKSTLSYRIKKLEKDGVIKGYYAYINPASLNLDYIVITSVKAKYGKNYHVELGNKLAQIPGVWGVYFVLGDNDFIVMARYKTREEFMEKFLERVMSIPEVERTSTQVVVKIIKESPNIVIF” stands “not failed”. “MGHHHHHHSHMGNIPEAIASYRTALKLKPDFPDAYCNLAHCLQIVCDWTDYDERMKKLVSIVADQLEKNRLPSVHPHHSMLYPLSHGFRKAIAERHGNLCLDKINVLHKPPYEHPKDLKLSDGRLRVGYVSSDFGNHPTSHLMQSIPGMHNPDK”: the protein production entry was “failed”. Under “MFHKALITFIVLWFFLNGLGAYDFKHCQAFFKKASLQKGGVALKELPKGVYLYYSKTYPKHAKVIKSDPFVGLYLLQSAPSEYVYTLRDLDKDALIRPMASIGDKEALETRLLVGQRGYERYAQISQKTQKNGVISNICYQMLGLGVGGNGFIETKFIKRFLNQQEPYYGDIGVRLEEHHKRLVVVQFDPFFPKNPFLKNDEILAINHQKIHSLAEFEWVVSNLKYQSLAKVEIKRNHKVKEVTLKVNKRYGGFLLKDTFLERYGIALDERFIITKIGAHLPKGLDFLKLGDRILWVNYKSVASNPKALREALSAPKIELLVLRKGFEFYIKVR” stands “failed”; under “MQLLPGPVRRFAAWCAVILLASGVVYVAIRLCVEFRTAVTPALLALLGTALLRPLHARLVKAHVQRSLAAGLTCAAVLAVVGGAVYIVVSALVETGDQIVTSLRDAAQGIADHFGAAGTSLDDLASNARELLGKFGGTAASGVVTGISVVGEMIAMAVLALLLVFFFLRDSDRAVTTVRALAPPGGADTVEAVARRAFGAVEGFMRGTTLIALIDAFCITVGLLVLRVPGAVGLGALVFVGAYIPYLGAFISGAVAVLVALADRGFVIALWALGVVLAVQVLEGHVLQPMIQSRTVQMHPAVVLLALTAGASVAGILGMLLAVPLTAAAFGVVHELQARYGVSTAASGPDAGPAPSTGAADS”, “failed”.

As to “MKFDVIIIGGSYAGLSAALQLGRARKNILLVDAGERRNRFASHSHGFLGQDGKAPGEIIAEARRQIERYPTIHWVEGRVTDAKGSFGEFIVEIDGGRRETAGRLILAMGVTDELPEIAGLRERWGSAVFHCPYCHGYELDQGKIGVIAASPMAIHHALMLPDWGETTFFTNGIVEPDADQHALLAARGVRVETTRIREIAGHADVVLADGRSIALAGLFTQPKLRITVDWIEKLGCAVEEGPMGSTIVTDPMKQTTARGIFACGDVARPAGSVALAVGDGAMAGAAAHRSILFPEMR”, the protein production result was “not failed”. With “MAGEQIKPVASGLLVLNFCMYVIVLGIGGWAMNRAIDHGFEVGPNLELPAHFSPIYFPMGNAATGFFVIFALLAGVVGAASTISGLSHIRSWTVGSLPAAATAATIAWTLTVLAMGFAWKEIELQGRNAKLRTMEAFLIILSVTQLIYIAAVHGVRRP” the entry was “failed”. As for “MNLPHLMSLASHLASHGFFCLRFTCKGLNIVHRIKAYKSVLNYLKTSGEYKLAGVFLGGRSMGSRAAASVMCHIEPDDGDDFVRGLICISYPLHHPKQQHKLRDEDLFRLKEPVLFVSGSADEMCEKNLLEKVAQKMQAPHKIHWIEKANHSMAVKGRSTNDVFKEINTQILFWIQEITEMDKKCH”, the protein production entry is on record as “failed”. As to “SEEDNRAPQLWRKTLTAPAPFADETNCQCQAPHEKLTIAQARLGTPADRPVRVYADGIFDLFHSGHARALMQAKTLFPNSYLLVGVCSDDLTHKFKGFTVMNEAERYEALRHCRYVDEVIRDAPWTLTPEFLEKHKIDFVAHDDIPYSSAGSDDVYKHIKEAGMFVPTQRTEGISTSDIITRIVRDYDVYARRNLQRGYTAKELNVSFINEKRYRFQNQVDKMKEKVKNVEERSKEFVNRVEEKSHDLIQKWEEKSREFIGNFLELFGPDGAWKQMFQERSSRMLQALSPKQSPVSSPTRSRSPSRSPSPTFSWLPLKTSPPSSPKAASASISSMSEGDEDEK”, the protein production result is “failed”. Regarding “MTYFFETYGCQMNQAESSSMEQILLEKGWTNSSDAEHCDLLIINTCSVRITAENRVLGRLGHFSGLKKKRKFFVLLIGCMAERLYTEIQKEFPLIDYVVGMFERNLLPQIFDEIKARLKNDNYMAEFTHDNIEEKPVSGYYFAPLSHSPKSFQSYVPIMNGCNNFCTYCIVPYVRGREVSRPVNEILQEITELSSRGVREITLLGQNVNSYKGEDGEGRLIDFPKLLTLIAREADKTDMIRWIRFMSSHPKDMSDALIDTIAAEKRLCKLVHLPVQHGSDTILKRMNRVYTIEHYKNRIKRLKETIPDIALSTDILMGFPGETEDDVKATLDLMQEIEFDSAFMYHYNPREGTKAFNYPDRIPEEVKIERLGRVIDLQLKITAKKMKAKLGKKVDILVESHSRNERSELFGHTEQGEMTVIQGNPPESLIGNFAHAELKELKGKTFRANLN”, the protein production entry is reported as “failed”.

Take “MRKYLAEFLGTFMLVFLGTATVVIAKGDVLAIGLAFGLAITVSAYAFGGISGGHFNPAVTTAMLINRRIDAADAIGYIIAQIIGAIVASAAVKSFVSALGLSATLLGQTDFPKIGSGMAFFVEALVTFLFLMVILNVTSNDHGNADFAGLTIGVTLAFLIIVALNLTGGSLNPARSIGPAIFAGGSALSHLWVYILAPEVGAILAAFCARVMGSED”: the protein production entry is given as “failed”. With “VEFSTLPAGPPAPPQDVTVQAGVTPATIRVSWRPPVLTPTGLSNGANVTGYGVYAKGQRVAEVIFPTADSTAVELVRLRSLEAKGVTVRTLSAQGESVDSAVAAVPPELLVPPTPHP” the entry was “not failed”; with “MLQQLFASPILSVQTLHPSYEDHASDVFLVQTKDEEVIVRSSKMTEEPNNDFWWGCKNLFGIDPRNVHHLEYIHELLKKHTNLPIPTILQKHVLNGRKYVSVEKLTGSTLQSFVGQSDSILFSLGKGLAEIHSFQAEFIGNPSGTFQVPLEEFKSHILKVSKELVNRFYSDNTSIRNAFSTFESQLSSLPTPKEATLVLIDMDPTQFLSDGTTITGLVDTEAYAVAPRELDFISLEYVFTEKEAHAFKQGYETIMPIPNLVECRHPYRYLYRLLSIQGSVELEKWLSHPSYF”, “failed”. As for “MSDPITLNVGGKLYTTSLATLTSFPDSMLGAMFSGKMPTKRDSQGNCFIDRDGKVFRYILNFLRTSHLDLPEDFQEMGLLRREADFYQVQPLIEALQEKEVELSKAEKNAMLNITLNQRVQTVHFTVREAPQIYSLSSSSMEVFNANIFSTSCLFLKLLGSKLFYCSNGNLSSITSHLQDPNHLTLDWVANVEGLPEEEYTKQNLKRLWVVPANKQINSFQVFVEEVLKIALSDGFCIDSSHPHALDFMNNKIIRLIRYR”, the protein production result was “failed”.
